Data taken from paper PMC12754632, “ZapA uses a two‐pronged mechanism to facilitate Z ring formation in Escherichia coli” (mLife, 2025).
Changes are numbered by the printed parent chain. Values belong to the binder of their own block, whether it stands above or below them.

Columns and labels:
[1] = molecular target: the molecule itself; assay: sedimentation of polymers; FtsZ variants (5 μM) in Pol buffer with 10 mM CaCl2 and 2.5 mM GTP, room temperature, ultracentrifugation at 100,000 rpm for 15 min at 25°C; polymerization of FtsZ with itself
[2] = molecular target: T1, FtsZ^D212N (Escherichia coli, UniProt P0A9A6 1-383, D212N); assay: pull-down; H-SUMO-ZapA (6 μM) and FtsZ (2 μM) in Pol buffer (50 mM HEPES-NaOH pH 6.8, 50 mM KCl, 10 mM MgCl2), GTP in the buffers throughout, held on Ni-NTA agarose, washed with 500 mM NaCl and 20 mM imidazole, eluted with 250 mM imidazole; fractions on SDS-PAGE; conditions: both partners purified
T1 construct: also called GTPase mutant (FtsZ^D212N); source: E. coli BL21/pLys, purified (Ni-NTA; His-SUMO tag cleaved with Ulp1); not shown: His-SUMO, N-terminal, cleaved
T1 sequence (looked up): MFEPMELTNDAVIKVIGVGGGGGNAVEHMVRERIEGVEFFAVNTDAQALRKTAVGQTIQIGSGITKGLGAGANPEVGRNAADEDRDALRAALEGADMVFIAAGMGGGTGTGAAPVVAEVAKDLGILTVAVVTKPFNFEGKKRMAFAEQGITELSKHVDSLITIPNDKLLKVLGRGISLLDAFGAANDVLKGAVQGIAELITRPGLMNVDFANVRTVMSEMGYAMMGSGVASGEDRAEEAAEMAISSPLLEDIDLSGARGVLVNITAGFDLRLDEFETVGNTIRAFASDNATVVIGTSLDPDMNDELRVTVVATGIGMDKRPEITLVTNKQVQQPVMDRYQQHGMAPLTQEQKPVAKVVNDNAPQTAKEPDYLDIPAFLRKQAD

[3] = molecular target: T2, wild-type FtsZ (Escherichia coli, UniProt P0A9A6 1-383); assay: co-sedimentation; FtsZ or variants (5 μM) with or without equal molar untagged ZapA, 2.5 mM GTP, no Ca2+, room temperature 5 min, ultracentrifugation; pellets and supernatants on SDS-PAGE; 50 mM HEPES pH 6.8, 10 mM MgCl2, 200 mM KCl (legend of Figure 4A); conditions: both partners purified
T2 construct: FtsZ, Escherichia coli; Forms filaments with GTP; GTP was present in the pull-down and the sedimentation assays; source: E. coli BL21/pLys, purified (Ni-NTA; His-SUMO tag cleaved with Ulp1); not shown: His-SUMO, N-terminal, cleaved
T2 sequence (looked up): T1 sequence (looked up) with N212D

B1: FtsZ^F2A (natural protein, Escherichia coli, UniProt P0A9A6 1-383, looked up)
chain: T1 sequence (looked up) with F2A, N212D
notes: FtsZ, Escherichia coli; source: E. coli BL21/pLys, purified (Ni-NTA; His-SUMO tag cleaved with Ulp1); not shown: His-SUMO, N-terminal, cleaved
- binding result [1]: binds

- binding result [2]: binds
B2: H-SUMO-ZapA (natural protein, Escherichia coli, UniProt P0ADS2 1-109, looked up)
chain: MSAQPVDIQIFGRSLRVNCPPDQRDALNQAADDLNQRLQDLKERTRVTNTEQLVFIAALNISYELAQEKAKTRDYAASMEQRIRMLQQTIEQALLEQGRITEKTNQNFE
notes: ZapA, Escherichia coli; Held on Ni-NTA agarose by the His tag in the pull-down; source: E. coli BL21 (DE3)/pLys, purified (Ni-NTA); not shown: His, N-terminal, kept; SUMO, N-terminal, kept

- binding result [3]: binds
B3: untagged ZapA (natural protein, Escherichia coli, UniProt P0ADS2 1-109, looked up)
chain: B2 chain
notes: ZapA, Escherichia coli; source: E. coli BL21 (DE3)/pLys, purified (Ni-NTA; His-SUMO tag cleaved with Ulp1); not shown: His-SUMO, N-terminal, cleaved
